This note sets out measurements from publication PMC8048842, “A Cyanine‐Bridged Somatostatin Hybrid Probe for Multimodal SSTR2 Imaging in Vitro and in Vivo: Synthesis and Evaluation” (Chembiochem, 2021).

Like-named read-outs stand apart in the source and are kept apart here.

Data set [1] concerns BON‐SSTR2 cells. The data set is described as follows: Toxicity test, metabolic activity (AlamarBlue). The data set is classed as cell-based, human. Particulars: 96 h treatment, up to a concentration of 10 μM, quadruplicates, n=2 (Figure S2). The procedure:
(§1) Toxicity tests: BON‐SSTR2 cells were seeded in quadruplicates in 96 well plates at a density of 5,000 cells per well and grown overnight. […] Metabolic activity and cell number were determined after another 96 h. For this, 100 μL medium containing AlamarBlue™ redox indicator (ThermoFisher) were added on top of each well, incubated for 3–4 h and the resulting fluorescence was measured using an EnVision Multilabel Plate Reader (PerkinElmer). Afterwards, the supernatant was removed; cells were fixated with 4 % v/v formaldehyde for 10 min and stained with 1 μg/mL DAPI in PBS/0.1 % v/v Triton for another 10 min. Four fields per well were imaged using an IN Cell Analyzer 1000 (GE Healthcare) with a 4x objective and nuclei were counted by Investigator software (GE Healthcare). All values were normalized to the control treated with vehicle and analyzed using GraphPad Prism 5.04.

Data set [2] relates to BON‐SSTR2 cells. Put plainly: Toxicity test, cell number (DAPI nuclei counting). The data set is classed as cell-based, human. The note with it: 96 h treatment, up to a concentration of 10 μM, quadruplicates, n=2 (Figure S2). The method, then:
as §1

Data set [3] concerns the target T1, ratSSTR2‐GFP fusion protein (Rattus norvegicus, UniProt P30680).
T1 construct: expressed in transfected cells
Put plainly: Endocytosis / receptor internalization assay in RIN1038 cells. Type of data set: cell-based. The source says: Endocytosis assay: Rat insulinoma RIN1038 cells stably expressing a ratSSTR2‐GFP fusion protein almost exclusively show green cell membrane fluorescence in the resting state while in the presence of a functional agonist, the receptor‐GFP fusion protein is translocated to a perinuclear endocytic vesicle compartment. This shift is readily recognized by inspection of the fluorescent image and can be detected by software‐based quantitation algorithms. […] Mounted cells were imaged using a confocal laser‐scanning microscope (LSM510, Carl Zeiss) with a helium–neon laser at 488 and 543 nm, BP505‐525 and LP560 emission filters and a 63x NeoFluar oil immersion objective. […] For automated microscopy, microscopic fluorescence images were recorded by an IN Cell Analyzer 1000 (GE Healthcare) with 20x magnification at 5 frames per well in a 96 well format. Image processing was performed with In Cell Investigator software (GE Healthcare) applying the provided granularity algorithm. The output of the analysis was indicated as vesicle area/cell and was utilized for calculation of concentration‐response curves resulting in the determination of half‐maximal activity (EC50).

Data set [4] can be described thus: in vivo. The note with it: female, NMRI-Foxn1nu/Foxn1nu nude, mouse, iv, total radioactivity.

T1 sequence (P30680 whole entry, the tested form may be a part): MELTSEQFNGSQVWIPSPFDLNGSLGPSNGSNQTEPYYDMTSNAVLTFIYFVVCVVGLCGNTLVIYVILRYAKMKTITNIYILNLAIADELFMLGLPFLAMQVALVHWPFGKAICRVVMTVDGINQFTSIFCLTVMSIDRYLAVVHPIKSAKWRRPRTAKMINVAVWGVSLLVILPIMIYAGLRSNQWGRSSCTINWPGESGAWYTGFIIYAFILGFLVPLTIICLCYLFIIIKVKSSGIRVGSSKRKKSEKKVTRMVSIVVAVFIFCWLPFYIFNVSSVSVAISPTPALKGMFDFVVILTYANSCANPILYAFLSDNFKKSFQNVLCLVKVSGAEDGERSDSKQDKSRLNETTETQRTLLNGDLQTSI

As to `C[C@@H](O)[C@H](NC(=O)[C@@H]1CSSC[C@H](NC(=O)[C@@H](Cc2ccccc2)NC(=O)c2ccc3c(c2)C(C)(C)/C(=C/C=C/C2=[N+](C)c4ccc(CNC(=O)CNC(=O)CN5CCN(CC(=O)O)CCN(CC(=O)O)CCN(CC(=O)O)CC5)cc4C2(C)C)N3CCCCS(=O)(=O)[O-])C(=O)N[C@@H](Cc2ccc(O)cc2)C(=O)N[C@H](Cc2c[nH]c3ccccc23)C(=O)N[C@@H](CCCCN)C(=O)N[C@@H]([C@@H](C)O)C(=O)N1)C(=O)O` [DOTA‐ICC‐TATE], in data set [1], the “inhibition of metabolism (AlamarBlue fluorescence, % control)” value is listed as “does not inhibit”. Besides, the “inhibition of proliferation (cell count, DAPI, % control)” value in data set [2] is given as “does not inhibit”. Also, the EC50 amounted to 4.21e-10 M in data set [3] (RIN1038-rSSTR2GFP, axis log DOTA-ICC-TATE [M], R square 0.9899, read-out: EC50 internalization as printed in Figure S2 D) and 4.2e-10 M in data set [3] (RIN1038 ratSSTR2‐GFP cells, eleven concentrations 3 pM–300 nM, 30 min, 37 °C, quadruplicates, vesicle area/cell, read-out: EC50 of SSTR2‐GFP fusion protein internalization). In addition, the “cellular uptake: colocalization of ICC dye signal with internalized GFP‐fused SSTR2” value in data set [3] (RIN1038 cells overexpressing SSTR2‐GFP, 1 μM conjugate, 30 min, 37 °C, confocal microscopy) was “clearly colocalized”.

Turning to `C[C@@H](O)[C@H](NC(=O)[C@@H]1CSSC[C@H](NC(=O)[C@@H](Cc2ccccc2)NC(=O)c2ccc3c(c2)C(C)(C)/C(=C/C=C/C2=[N+](C)c4ccc(CNC(=O)CNC(=O)CN5CCN(CC(=O)O)CCN(CC(=O)O)CCN(CC(=O)O)CC5)cc4C2(C)C)N3CCCCS(=O)(=O)[O-])C(=O)N[C@@H](Cc2ccc(O)cc2)C(=O)N[C@H](Cc2c[nH]c3ccccc23)C(=O)N[C@@H](CCCCN)C(=O)N[C@@H]([C@@H](C)O)C(=O)N1)C(=O)O` [^68Ga‐DOTA‐ICC‐TATE, metal not drawn], the figures for the tissue uptake at 1 h in data set [4] (ex vivo biodistribution uptake in kidneys) and in data set [4] (ex vivo biodistribution uptake in liver) were roughly 30 %ID/g and 5 %ID/g, respectively.
